Source: patent US20090258005A1 (TRUBION PHARMACEUTICALS, published 2009)

Key:
L1-CR1 (Her054P) = target: T1, L1-CR1 (Her054P); assay: ELISA, soluble scFv on L1-CR1
T1 construct: also called 1.0
T1 chain: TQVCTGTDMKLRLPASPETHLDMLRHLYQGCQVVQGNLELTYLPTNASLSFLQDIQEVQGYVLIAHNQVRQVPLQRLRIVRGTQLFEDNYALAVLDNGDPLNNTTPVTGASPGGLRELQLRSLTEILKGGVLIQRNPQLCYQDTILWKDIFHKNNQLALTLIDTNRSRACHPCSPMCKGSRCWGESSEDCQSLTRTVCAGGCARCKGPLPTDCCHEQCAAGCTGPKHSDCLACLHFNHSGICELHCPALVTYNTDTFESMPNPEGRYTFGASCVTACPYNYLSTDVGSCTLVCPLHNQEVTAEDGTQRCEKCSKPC
Procedure: (§1) Various Her2-Fc proteins (e.g., Her008P, Her017P, Her018P, etc.) or a negative control murine IgG2a protein were coated overnight at 4° C. on 96-well Nunc Maxisorp at a concentration of 1 ug/ml in PBS. Alternatively, pre-blocked streptavidin-coated plates (Greiner) were coated with biotinylated Her2-Fc proteins for 1 hour at room temperature at a concentration of 1 ug/ml in block buffer (3% skim milk/1% BSA/PBS). Plates were washed three times using PBS and blocked for 1 hour at room temperature in 3% skim milk/1% BSA/PBS. Phage or peripreps were prepared as described above and were blocked for 1 hour at room temperature in an equal volume of 6% skim milk/1% BSA/PBS. Blocked plates were washed five times with PBS and 50 μl/well of blocked phage or periprep were transferred to the appropriate plates and incubated for 1 hour at room temperature. […] Plates were incubated for a further hour at room temperature and washed seven times with PBS. Signal was developed using TMB, the reaction stopped with H₂SO₄ and the absorbance read at 450 nm on an Envision plate reader (Perkin Elmer).

[1] = target: T2, Her018P, Her2 ECD with a deletion in the CR2 (Domain IV) region expressed with a mIgG2a Fc tail (human; murine, UniProt P04626 23-599); assay: ELISA, soluble scFv on Her018
T2 construct: Shares the name HER018 with the trastuzumab SMIP; also called 1.8 (Dimer); dimeric HER018; not shown: murine IgG2a Fc tail (C-terminal dimerising carrier) and any junction residues

EQR (Her017P) = target: T3, EQR (Her017P); assay: ELISA, soluble scFv on EQR
T3 construct: also called HER2 EQR-Fc; HER2 EQR DIMER
Procedure: as §1

[2] = target: T4, Her008P, full-length extracellular domain (ECD) of Her2 expressed with a mIgG2a Fc tail (human; murine, UniProt P04626 23-652); assay: ELISA, soluble scFv on ECD
T4 construct: also called SIIS; SIIS (Dimer); not shown: murine IgG2a Fc tail

ECD region of Her2 [3] = target: T5, ECD region of Her2 (human, UniProt P04626 23-652); assay: cell ELISA, phage scFv, CHO-ECD cells
T5 construct: extracellular domain; Generic target of the scFv screen; also called extracellular domain (ECD) of Her2 (ErbB2)
Procedure: 2×10⁴ CHOK1 cells/well were seeded in a 96-well tissue culture plate on Day 1 and incubated at 37° C./5% CO₂ for 2-4 days until a confluent monolayer was observed. Cells were washed five times with PBS (+ Ca/Mg ions) and blocked for 1 hour at room temperature with 3% skim milk/1% BSA/PBS (+ Ca/Mg ions). Phage or peripreps were prepared as described above and were blocked for 1 hour at room temperature in an equal volume of 6% skim milk/1% BSA/PBS (+ Ca/Mg ions). Blocked plates were washed five times with PBS (+ Ca/Mg ions) and 50 μl/well of blocked phage or periprep were transferred to the appropriate plates and incubated for 1 hour at room temperature. […] Plates were incubated for a further hour at room temperature and washed ten times with PBS (+ Ca/Mg ions). Signal was developed using TMB, the reaction stopped with H₂SO₄ and the absorbance read at 450 nm on an ENVISION plate reader (Perkin Elmer).

Full length HER2 = target: T6, Full length HER2 (human, UniProt P04626 23-1255); assay: cell ELISA, phage scFv, SKBR3 cells
T6 construct: Endogenous HER2 on SKBR3, BT474, 22rv1, MDA-MB-175, MDA-MB-453 and MDA-MB-361 cells; also called HER2 on the cell surface; ErbB2

ECD region of Her2 [4] = target: T5, ECD region of Her2; assay: screening after three rounds of phage selection, soluble periplasmic scFv

B1: S1R3B2_BMV_1G2 (scFv, V domains shown)
VH: QVQLVQSGAEVKKPGSSVKVSCKASGYTFTSYGISWVRQAPGQGLEWMGWISAYNGNTNYAQKLQGRVTMTTDTSTSTAYMELRSLRSDDTAVYYCARVPGVSGSYPDYYYMDVWGKGTLVTVSS
VL: DIQMTQSPSTLSASIGDRVTITCRASEGIYHWLAWYQQKPGKAPKLLIYKASSLASGAPSRFSGSGSGTDFTLTISSLQPDDFATYYCQQYSNYPLTFGGGTKLEIK
notes: scFv, on phage in the screen; also called Her2_S1R3B2_BMV_1G2
Does B1 bind (L1-CR1 (Her054P))?
Result: no binding

Does B1 bind [1]?
Result: binds

Does B1 bind (EQR (Her017P))?
Result: binds

Does B1 bind [2]?
Result: binds

Does B1 bind (ECD region of Her2 [3])?
Result: binds

Does B1 bind (Full length HER2)?
Result: binds

B2: S1R3A1_BMV_1F3 (scFv, V domains shown)
VH: EVQLVESGEGLVKPGGSLRLSCTASGFTFRSYSLNWVRQAPGQGLEWVSSISSTSTYIYYADSVKGRFTISRDDAKNTLYLQMNSLRAEDTAAYYCVRLGSGGGYFPDYWGRGTLVTVSS
VL: SSELTQDPAVSVALGQTVRITCQGDSLRSYYASWYQQKPGQAPVLVIYGKNNRPSGIPDRFSGSSSGNTASLTITGAQAEDEADYYCNSRDSSGNHVVFGGGTKLTVL
notes: scFv, soluble from bacterial periplasm in the screen; also called Her2_S1R3A1_BMV_1F3
Does B2 bind (L1-CR1 (Her054P))?
Result: no binding

Does B2 bind [1]?
Result: binds

Does B2 bind (EQR (Her017P))?
Result: binds

Does B2 bind (ECD region of Her2 [4])?
Result: binds

Does B2 bind [2]?
Result: binds

B3: S1R3B1_BMV_1H5 (scFv, V domains shown)
VH: QVQLQESGGGVVQPGGSLRLSCAASGFTFSGYGMHWVRQAPGKGLEWVASVRNDGSNTYYTDSVKDRFTISRDNTKNTLYLQMNSLRAEDTAVYYCAKSRRVMYGTSYYFDYWGRGTLVTVSS
VL: SSELTQDPAVSVALGQTVRITCQGDSLRSYYASWYQQKPGQAPVLVIYGKNNRPSGIPDRFSGSSSGNTASLTITGAQAEDEADYYCNSRDSSGNHVVFGGGTKLTVL
notes: scFv, soluble from bacterial periplasm in the screen; also called Her2_S1R3B1_BMV_1H5
What does the source list for B3?
binding result (L1-CR1 (Her054P)): no binding; binding result [1]: no binding; binding result (EQR (Her017P)): no binding; binding result (ECD region of Her2 [4]): binds; binding result [2]: binds

B4: S1R3B1_BMV_1H9 (scFv, V domains shown)
VH: QVQLQESGAGLVKPSGTLSLTCAVSGGSISSGNWWSWVRQPPGKGLEWIGEISHSGSTNYNPSLKSRVTISVDKSKNQFSLNLSSVTAADTAVYYCARVRGTVGDTRGPDYWGQGTLVTVSS
VL: SSELTQDPAVSVALGQTVRITCQGDSLRSYYASWYQQKPGQAPVLVIYGKNNRPSGIPDRFSGSSSGNTASLTITGAQAEDEADYYCNSRDSSGNHVVFGGGTKLTVL
notes: scFv, soluble from bacterial periplasm in the screen; also called Her2_S1R3B1_BMV_1H9
Does B4 bind (L1-CR1 (Her054P))?
Result: no binding

Does B4 bind [1]?
Result: no binding

Does B4 bind (EQR (Her017P))?
Result: no binding

Does B4 bind (ECD region of Her2 [4])?
Result: binds

Does B4 bind [2]?
Result: binds

B5: S1R3B1_BMV_1A1 (scFv, V domains shown)
VH: EVQLVQSGAEVKEPGASVKVSCKASGYDFSNYGFSWVRQAPGQGLEWMGWISSYNGYTNYAQRLQGRVTMTTDTSTSTAYMELRSLRSDDTAVYYCARDRGLGNWYFDLWGQGTLVTVSS
VL: QSVLTQPASVSGSPGQSITISCTGTSSDVGGYNYVSWYQQHPGKAPKLMIYEGSKRPSGVSNRFSGSKSGNTASLTISGLQAEDEADYYCSSYTTRSTRVFGGGTKLTVL
notes: scFv, soluble from bacterial periplasm in the screen; also called Her2_S1R3B1_BMV_1A1
Which results are given for B5?
binding result (L1-CR1 (Her054P)): no binding; binding result [1]: no binding; binding result (EQR (Her017P)): binds; binding result (ECD region of Her2 [4]): binds; binding result [2]: binds

B6: S1R3B1_BMV_1G11 (scFv, V domains shown)
VH: QVQLVQSGGGLVQPGGSLRLSCAASGFTFSTYAMSWARQAPGKGLEWVSSISGDGGRILDADSAKGRFTISRDNSKNTLYLQMNGLRVEDTALYYCARADGNYWGRGTMVTVSS
VL: QSVLTQPASVSGSPGQSITISCTGTSSDVGGYNYVSWYQQHPGKAPKLMIYEGSKRPSGVSNRFSGSKSGNTASLTISGLQAEDEADYYCSSYTTRSTRVFGGGTKLTVL
notes: scFv, soluble from bacterial periplasm in the screen; also called Her2_S1R3B1_BMV_1G11
Does B6 bind (L1-CR1 (Her054P))?
Result: no binding

Does B6 bind [1]?
Result: no binding

Does B6 bind (EQR (Her017P))?
Result: no binding

Does B6 bind (ECD region of Her2 [4])?
Result: binds

Does B6 bind [2]?
Result: binds

B7: S1R3A1_DP47_1A6 (scFv, V domains shown)
VH: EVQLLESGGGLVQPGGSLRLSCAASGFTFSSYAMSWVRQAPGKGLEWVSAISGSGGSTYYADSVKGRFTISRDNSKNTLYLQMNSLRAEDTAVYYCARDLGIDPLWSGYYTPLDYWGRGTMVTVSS
VL: HVILTQPPSASGTPGQRVTISCSGSSSNIGSNSVSWYQQLPGTAPKLLMYTNNQRPSGVPDRFSGSKSGTSASLAISGLQSEDEADYYCATWDASLNTWVFGGGTKVTVL
notes: scFv, soluble from bacterial periplasm in the screen; also called Her2_S1R3A1_DP47_1A6
Which results are given for B7?
binding result (L1-CR1 (Her054P)): no binding; binding result [1]: binds; binding result (EQR (Her017P)): binds; binding result (ECD region of Her2 [4]): binds; binding result [2]: binds

B8: S1R3C1_CS_1D3 (scFv, V domains shown)
VH: QVQLQESGPGLVKPSQTLSLTCGISGDSVSSNSAAWNWIRQSPTRGLEWLGRTYYRSSWYHNYAPSMNSRLTIIADTSKNQFSLQLNSVTPEDTAVYYCASGWAFDVWGRGTLVTVSS
VL: QSVLTQPPSASGSPGQSVTISCTGTSSDVGAYDFVSWYQQHPGKAPKLMIYEVNKRPSGVPDRFSGSKSGNTASLTVSGLQAEDEADYYCSSYAGSKNLLFGGGTKLTVL
notes: scFv, on phage in the screen; also called Her2_S1R3C1_CS_1D3
Does B8 bind (L1-CR1 (Her054P))?
Result: no binding

Does B8 bind [1]?
Result: no binding

Does B8 bind (EQR (Her017P))?
Result: binds

Does B8 bind [2]?
Result: binds

Does B8 bind (ECD region of Her2 [3])?
Result: binds

Does B8 bind (Full length HER2)?
Result: binds
